Reference: patent publication US20200399341A1 (Hoffmann-La Roche, published 2020)

Molecular target: T1, Recombinant human VEGF R2 (R&D Systems, #357-KD) (human, UniProt P35968 20-764)
T1 construct: Immobilized by amine coupling on a CM5 chip (approx. 9,500 RU)
Assay: SPR (BIAcore T200): VEGF-A-121 (10 nM, pre-incubated with COMP-anti-VEGF-Fab) injected over amine-coupled VEGF R2
Protocol: Binding was investigated by surface plasmon resonance using a BIAcore T200 instrument (GE Healthcare). All experiments were performed at 25° C. using HBS-P (10 mM HEPES, 140 mM NaCl, 0.05% PS20, pH 7.4) as running and dilution buffer. Recombinant human VEGF R2 (R&D Systems, #357-KD) was immobilized on a Series S CM5 Sensor Chip (GE Healthcare) using standard amine coupling chemistry resulting a surface density of approx. 9,500 RU. […] Subsequently the surface was regenerated by injecting 10 mM Glycine solution (pH 2.0) for 60 sec., followed by 5 mM NaOH for 60 sec. at a flow rate of 5 μl/min. Bulk refractive index differences were corrected by subtracting the response obtained from a mock surface. Blank injections were subtracted (double referencing). The derived binding signals (resonance units RU) were plotted against the antibody concentrations to calculate IC₅₀ values.

T1 sequence (P35968 20-764 limits assumed): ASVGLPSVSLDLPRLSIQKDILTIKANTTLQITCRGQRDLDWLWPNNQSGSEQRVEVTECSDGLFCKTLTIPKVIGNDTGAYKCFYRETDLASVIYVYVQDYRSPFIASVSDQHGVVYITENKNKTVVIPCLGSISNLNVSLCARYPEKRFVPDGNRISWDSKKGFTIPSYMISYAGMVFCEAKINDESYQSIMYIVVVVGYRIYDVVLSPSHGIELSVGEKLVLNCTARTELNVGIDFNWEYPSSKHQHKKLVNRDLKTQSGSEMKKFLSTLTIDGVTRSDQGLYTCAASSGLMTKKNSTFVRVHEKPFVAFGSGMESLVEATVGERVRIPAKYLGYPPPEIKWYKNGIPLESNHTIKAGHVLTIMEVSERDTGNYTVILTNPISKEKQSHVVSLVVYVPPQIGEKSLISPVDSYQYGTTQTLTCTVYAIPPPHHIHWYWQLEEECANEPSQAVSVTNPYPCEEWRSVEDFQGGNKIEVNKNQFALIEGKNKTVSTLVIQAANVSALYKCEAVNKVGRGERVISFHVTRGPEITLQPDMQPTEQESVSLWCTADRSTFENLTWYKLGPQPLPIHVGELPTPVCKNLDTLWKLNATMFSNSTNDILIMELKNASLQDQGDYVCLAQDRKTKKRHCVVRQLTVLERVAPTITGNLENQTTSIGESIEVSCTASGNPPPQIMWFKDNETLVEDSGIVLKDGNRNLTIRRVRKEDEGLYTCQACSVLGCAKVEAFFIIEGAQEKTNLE

B1: VEGF-A-121 (ligand, UniProt P15692-9 27-147, looked up)
chain: APMAEGGGQNHHEVVKFMDVYQRSYCHPIETLVDIFQEYPDEIEYIFKPSCVPLMRCGGCCNDEGLECVPTEESNITMQIMRIKPHQGQHIGEMSFLQHNKCECRPKKDRARQEKCDKPRR
notes: Used at 10 nM in solution, pre-incubated with the antibody molecules
  binding result: binds
